Target: FLAG-YAP tagged with a nuclear exclusion sequence (NES) (human) (UniProt P46937)
Assay: co-IP

IQGAP1 (from UniProt Q9JKF1 1-1657) (natural protein)
fold association relative to WT YAP: 2 fold
